“And” between values parts separate entries of the source, which are not always exact repeats. Identical values can stand only once.
How the values were obtained:
human pre-kallikrein = human pre-kallikrein (human, UniProt P03952 20-638); assay: direct ELISA, panel 'Human Pre-kallikrein': antigen coated on the plate, IgG titrated, fluorescence (RFU)
Experimental: (§1) For direct coating ELISAs, antigens were immobilized on 384-well Maxisorp™ microtiter plates over night at 4° C. using the concentrations as shown in Table 5. After blocking with 5% skim milk powder in PBS (80 μl/well), 20 μl/well of Fab-containing E. coli lysates or purified antibodies at various concentrations (typically 12 points of a 1:3 titration starting at 200 nM IgG or Fab, respectively) were added to plates and incubated for 1 h at room temperature. […] Fluorescence emission at 535 nm was recorded with excitation at 430 nm. Multiple wash steps with PBS+0.05% Tween20 were performed in between individual assay steps.

[1] = molecular target: T1, human plasma derived FXIa (human, UniProt P03951 19-625); assay: cell-based or functional assay
rabbit FXI = rabbit FXI (rabbit); assay: direct ELISA, panel 'Rabbit FXI': antigen coated on the plate, IgG titrated, AP-anti-human F(ab)2 and AttoPhos fluorescence (RFU); half-maximal binding concentration of the fit, headed 'IC50' in the drawn table; unit taken from the axis 'Conc. [nM]'
Experimental: as §1

human kallikrein = human kallikrein (human, UniProt P03952 20-638); assay: direct ELISA, panel 'Human Kallikrein': antigen coated on the plate, IgG titrated, fluorescence (RFU)
Experimental: as §1

cynomolgus monkey FXI = cynomolgus monkey FXI (cynomolgus monkey); assay: direct ELISA, panel 'Cynomolgus monkey FXI': antigen coated on the plate, IgG titrated, AP-anti-human F(ab)2 and AttoPhos fluorescence (RFU); half-maximal binding concentration of the fit, headed 'IC50' in the drawn table; unit taken from the axis 'Conc. [nM]'
Experimental: as §1

[2] = molecular target: T1, human plasma derived FXIa; assay: direct ELISA, panel 'Human plasma FXIa': antigen coated on the plate, IgG titrated, AP-anti-human F(ab)2 and AttoPhos fluorescence (RFU); half-maximal binding concentration of the fit, headed 'IC50' in the drawn table; unit taken from the axis 'Conc. [nM]'
Experimental: as §1

human plasma-derived FXI = molecular target: T2, human plasma-derived FXI (human, UniProt P03951 19-625); assay: direct ELISA, panel 'Human plasma FXI': antigen coated on the plate, IgG titrated, AP-anti-human F(ab)2 and AttoPhos fluorescence (RFU); half-maximal binding concentration of the fit, headed 'IC50' in the drawn table; unit taken from the axis 'Conc. [nM]'
T2 construct: This is the zymogen, which has two chains; also called human FXI; Factor XI
Experimental: as §1

[3] = molecular target: T1, human plasma derived FXIa; assay: cell-based or functional assay; remark: listed apart in the source
[4] = molecular target: T1, human plasma derived FXIa; assay: solution equilibrium titration (SET), IgG at 20 pM, 1:1 binding model
Experimental: (§2) Experiments were carried out in polypropylene microtiter plates and with PBS (GIBCO 14190, pH 7.0-7.2) containing 0.5% BSA and 0.02% Tween20 as assay buffer. Serial dilutions of unlabeled FXIa antigen were prepared, starting with a concentration at least 10 times higher than the expected KD. Wells without antigen were used to determine Bₘₐₓ values; wells containing only assay buffer were used to determine background. After addition of an appropriate amount of binder (antibody concentration similar to or below the expected KD, 60 μL final volume), the mixture was incubated over night at RT.
(§3) MSD plates were coated with 1 μg/mL human plasma derived FXIa (30 μL per well). After washing the plate with PBS containing 0.05% Tween 20, the equilibrated samples were transferred to the plates and incubated for 20 min. Following incubation, 30 μL per well of the MSD-Sulfo-tag labeled detection antibody (anti-Flag M2 (Sigma) 1:2,000) was added to the washed MSD plate and incubated for 30 min at RT on an Eppendorf shaker (700 rpm).
The SET method described in Example 2 was used to determine the KD for AM4 (IgG), and compared to NOV1401, the germlined version of its parental antibody NOV1090.

[5] = molecular target: T1, human plasma derived FXIa; assay: solution equilibrium titration (SET), ECL read-out, purified Fab at 500 pM with titrated hFXIa; ± is the 95% confidence interval of the fit
Experimental: as §2, §3
After washing the MSD plate and adding 30 μL/well MSD Read Buffer T with surfactant, electrochemiluminescence signals were detected using a Sector Imager 6000 (Meso Scale Discovery, Gaithersburg, Md., USA).

[6] = molecular target: T1, human plasma derived FXIa; assay: direct ELISA, panel 'Human plasma FXIa': antigen coated on the plate, IgG titrated, AP-anti-human F(ab)2 and AttoPhos fluorescence (RFU); the printed IC50 cell of this row is under recheck
Experimental: as §1

[7] = molecular target: T1, human plasma derived FXIa; assay: SET KD estimates of Fabs compared with SET KD of NOV1090 Fab
[8] = molecular target: T1, human plasma derived FXIa; assay: SET screening compared with SET KD of NOV1090 Fab
[9] = molecular target: T1, human plasma derived FXIa; assay: SET screening, KD estimate from 5 data points, unpurified Fab in bacterial lysate; ± is the 95% confidence interval of the fit
Excerpt: To estimate Fab KDs, bacterial lysates were screened by SET. The SET screening method (see, e.g., Della Ducata et al (2015) J Biomol Screen; 20(10):1256-67) was generally performed as described above for the SET determination method. For ranking of the matured binders by SET based on the principles described by Haenel and coworkers (Haenel et al (2005) Anal Biochem; 339(1):182-4), a constant amount of diluted BEL extract (bacterial lysate) was equilibrated over night with different concentrations of antigen.
The mixture was then transferred to MSD plates, which were previously coated with antigen (1 μg/mL human plasma FXIa), and after incubation and washing, a suitable MSD-Sulfo-tag labeled detection antibody was added (anti-Flag M2, Sigma).

[10] = molecular target: T1, human plasma derived FXIa; assay: method not stated in the sentence (compared with the SET KD of NOV1090 Fab); NOV1401 Fab, cited for comparison with the SET KD of NOV1090 Fab

cynomolgus monkey FXI (cynomolgus monkey), sequence (P03951 other isoform, or with tags, fused parts or gaps): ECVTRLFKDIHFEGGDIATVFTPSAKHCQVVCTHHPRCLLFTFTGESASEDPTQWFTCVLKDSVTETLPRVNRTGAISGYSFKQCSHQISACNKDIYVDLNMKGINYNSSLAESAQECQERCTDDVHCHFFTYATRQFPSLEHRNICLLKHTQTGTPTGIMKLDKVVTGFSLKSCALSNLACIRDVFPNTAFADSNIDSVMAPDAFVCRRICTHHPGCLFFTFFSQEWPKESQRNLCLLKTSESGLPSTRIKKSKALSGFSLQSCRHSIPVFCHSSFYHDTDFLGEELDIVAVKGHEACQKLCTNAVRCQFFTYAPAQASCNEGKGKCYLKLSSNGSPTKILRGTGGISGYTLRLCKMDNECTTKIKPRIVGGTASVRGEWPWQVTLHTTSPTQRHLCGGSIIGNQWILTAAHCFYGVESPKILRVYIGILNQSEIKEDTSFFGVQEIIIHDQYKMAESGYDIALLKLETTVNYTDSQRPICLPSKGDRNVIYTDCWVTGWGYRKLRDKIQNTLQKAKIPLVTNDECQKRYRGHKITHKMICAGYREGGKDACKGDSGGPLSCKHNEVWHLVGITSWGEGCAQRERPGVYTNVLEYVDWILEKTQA
human kallikrein, sequence (P03952 20-638 limits assumed): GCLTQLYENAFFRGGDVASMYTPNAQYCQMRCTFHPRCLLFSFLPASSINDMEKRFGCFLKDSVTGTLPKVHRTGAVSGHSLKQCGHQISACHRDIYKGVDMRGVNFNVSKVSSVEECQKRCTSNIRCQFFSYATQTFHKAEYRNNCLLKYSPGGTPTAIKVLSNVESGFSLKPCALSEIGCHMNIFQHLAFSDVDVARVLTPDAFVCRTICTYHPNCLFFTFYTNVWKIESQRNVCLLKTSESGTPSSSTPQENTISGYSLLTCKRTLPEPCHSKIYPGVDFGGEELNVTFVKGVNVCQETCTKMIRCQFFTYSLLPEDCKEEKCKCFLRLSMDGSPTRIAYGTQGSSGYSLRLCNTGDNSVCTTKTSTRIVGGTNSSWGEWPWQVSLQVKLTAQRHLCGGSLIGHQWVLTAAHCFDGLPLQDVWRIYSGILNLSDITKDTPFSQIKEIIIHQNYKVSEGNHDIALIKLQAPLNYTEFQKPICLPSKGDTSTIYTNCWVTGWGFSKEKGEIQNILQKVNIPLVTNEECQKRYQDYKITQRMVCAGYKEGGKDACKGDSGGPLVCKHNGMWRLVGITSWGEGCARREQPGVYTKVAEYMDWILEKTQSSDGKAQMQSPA
human pre-kallikrein, sequence (P03952 20-638 limits assumed): as above
T2 sequence (P03951 19-625 C226S limits assumed): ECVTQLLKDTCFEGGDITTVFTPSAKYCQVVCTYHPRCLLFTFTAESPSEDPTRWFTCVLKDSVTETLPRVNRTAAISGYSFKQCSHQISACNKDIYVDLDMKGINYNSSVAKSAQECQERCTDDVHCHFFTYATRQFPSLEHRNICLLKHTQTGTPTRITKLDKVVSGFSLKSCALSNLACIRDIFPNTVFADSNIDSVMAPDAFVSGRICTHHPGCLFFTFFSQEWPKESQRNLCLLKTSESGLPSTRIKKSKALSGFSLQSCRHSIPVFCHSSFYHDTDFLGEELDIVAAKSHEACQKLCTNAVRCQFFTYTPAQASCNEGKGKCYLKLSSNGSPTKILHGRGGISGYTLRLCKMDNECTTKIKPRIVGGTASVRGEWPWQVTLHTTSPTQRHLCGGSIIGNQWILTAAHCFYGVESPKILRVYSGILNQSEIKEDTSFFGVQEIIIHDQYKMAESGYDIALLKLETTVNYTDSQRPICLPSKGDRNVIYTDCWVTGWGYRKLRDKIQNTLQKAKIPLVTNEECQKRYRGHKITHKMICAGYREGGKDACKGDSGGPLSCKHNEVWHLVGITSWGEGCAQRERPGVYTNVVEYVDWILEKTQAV
T1 sequence (P03951 19-625 C226S limits assumed): as above

Binder	binding result (human pre-kallikrein)	IC50 (rabbit FXI) [nM]	binding result (human kallikrein)	IC50 (cynomolgus monkey FXI) [nM]	IC50 (human plasma-derived FXI) [nM]	TGA IC50 [3] [nM]	TGA Residual Thrombin [nM] (%) [3]	fold increase in affinity over NOV1090 Fab [7] [fold]	fold lower KD than NOV1090 Fab [8] [fold]	Kd [9] [nM]	other results
AM1 (IgG) (antibody, V domains shown) VH: QVQLLESGGGLVQPGGSLRLSCAASGFTFSTAAMSWVRQAPGKGLEWVSTIDSWGDDTDYADSVKGRFTISRDNSKNTLYLQMNSLRAEDTAVYYCARELSYLYSGYYFDYWGQGTLVTVSS VL: DIVLTQPPSVSGAPGQRVTISCSGSSSNIGSNDVSWYQQLPGTAPKLLIYKNYNRPSGVPDRFSGSKSGTSASLAITGLQAEDEADYYCSAWDQRQFDVVFGGGTKLTVLG	no binding (tested: about 200 nM)	0.463	no binding (tested: about 200 nM)	0.448	0.215	6	180 nM and 37.5%	–	–	–	TGA IC50, fold lower compared to NOV1401 [1]: ~4 fold; IC50 [2]: 0.274 nM
NOV1401 (IgG) (antibody, V domains shown, Germlined version of NOV1090, human IgG1/lambda with D265A and P329A in the Fc) VH: QVQLLESGGGLVQPGGSLRLSCAASGFTFSTAAMSWVRQAPGKGLEWVSGISGSGSSTYYADSVKGRFTISRDNSKNTLYLQMNSLRAEDTAVYYCARELSYLYSGYYFDYWGQGTLVTVSS VL: QSVLTQPPSASGTPGQRVTISCSGSSSNIGSNDVSWYQQLPGTAPKLLIYKNYNRPSGVPDRFSGSKSGTSASLAISGLQSEDEADYYCSAWDQRQFDVVFGGGTKLTVLG	–	–	–	–	–	24	159 nM and 34.4%	–	–	–	Kd [4]: 0.00312 nM
NOV1090 Fab (Fab, V domains shown, Purified HuCAL Fab, at least 90% monomer; It was detected with anti-Flag M2, so it carries a Flag tag; also called anti-FXI/FXIa Fab; parental NOV1090 Fab fragment) VH: QVQLLESGGGLVQPGGSLRLSCAASGFTFSTAAMSWVRQAPGKGLEWVSGISGSGSSTYYADSVKGRFTISRDNSKNTLYLQMNSLRAEDTAVYYCARELSYLYSGYYFDYWGQGTLVTVSS VL: DIVLTQPPSVSGAPGQRVTISCSGSSSNIGSNDVSWYQQLPGTAPKLLIYKNYNRPSGVPDRFSGSKSGTSASLAITGLQAEDEADYYCSAWDQRQFDVVFGGGTKLTVL	–	–	–	–	–	–	–	–	–	–	Kd [5]: 0.21 nM
NOV1090 (IgG) (antibody, V domains shown, Non-germlined version of NOV1401, human IgG1/lambda; also called parental NOV1090; parental IgG) VH: QVQLLESGGGLVQPGGSLRLSCAASGFTFSTAAMSWVRQAPGKGLEWVSGISGSGSSTYYADSVKGRFTISRDNSKNTLYLQMNSLRAEDTAVYYCARELSYLYSGYYFDYWGQGTLVTVSS VL: DIVLTQPPSVSGAPGQRVTISCSGSSSNIGSNDVSWYQQLPGTAPKLLIYKNYNRPSGVPDRFSGSKSGTSASLAITGLQAEDEADYYCSAWDQRQFDVVFGGGTKLTVLG	no binding (tested: about 200 nM)	0.504	no binding (tested: about 200 nM)	0.58	0.392	–	–	–	–	–	EC50 (read off the curve) [6]: ~0.6 nM
AM3 Fab (Fab, V domains shown, Unpurified Fab in bacterial lysate (BEL extract), used in SET screening) VH: QVQLLESGGGLVQPGGSLRLSCAASGFTFSTAAMSWVRQAPGKGLEWVSTIEYSSQETYYADSVKGRFTISRDNSKNTLYLQMNSLRAEDTAVYYCARELSYLYSGYYFDYWGQGTLVTVSS VL: DIVLTQPPSVSGAPGQRVTISCSGSSSNIGSNDVSWYQQLPGTAPKLLIYKNYNRPSGVPDRFSGSKSGTSASLAITGLQAEDEADYYCSAWDQRQFDVVFGGGTKLTVL	–	–	–	–	–	–	–	~10	~7	0.029	–
AM2 Fab (Fab, V domains shown, Unpurified Fab in bacterial lysate (BEL extract), used in SET screening) VH: QVQLLESGGGLVQPGGSLRLSCAASGFTFSTAAMSWVRQAPGKGLEWVSSIEYYDTDTHYADSVKGRFTISRDNSKNTLYLQMNSLRAEDTAVYYCARELSYLYSGYYFDYWGQGTLVTVSS VL: DIVLTQPPSVSGAPGQRVTISCSGSSSNIGSNDVSWYQQLPGTAPKLLIYKNYNRPSGVPDRFSGSKSGTSASLAITGLQAEDEADYYCSAWDQRQFDVVFGGGTKLTVL	–	–	–	–	–	–	–	~10	~7	0.027	–
NOV1401 Fab (Fab, V domains shown, Fab of NOV1401, the germlined version of NOV1090 with identical CDRs) VH: QVQLLESGGGLVQPGGSLRLSCAASGFTFSTAAMSWVRQAPGKGLEWVSGISGSGSSTYYADSVKGRFTISRDNSKNTLYLQMNSLRAEDTAVYYCARELSYLYSGYYFDYWGQGTLVTVSS VL: QSVLTQPPSASGTPGQRVTISCSGSSSNIGSNDVSWYQQLPGTAPKLLIYKNYNRPSGVPDRFSGSKSGTSASLAISGLQSEDEADYYCSAWDQRQFDVVFGGGTKLTVL	–	–	–	–	–	–	–	–	–	–	Kd [10]: 0.305 nM
AM2 (IgG) (antibody, V domains shown) VH: QVQLLESGGGLVQPGGSLRLSCAASGFTFSTAAMSWVRQAPGKGLEWVSSIEYYDTDTHYADSVKGRFTISRDNSKNTLYLQMNSLRAEDTAVYYCARELSYLYSGYYFDYWGQGTLVTVSS VL: DIVLTQPPSVSGAPGQRVTISCSGSSSNIGSNDVSWYQQLPGTAPKLLIYKNYNRPSGVPDRFSGSKSGTSASLAITGLQAEDEADYYCSAWDQRQFDVVFGGGTKLTVLG	no binding (tested: about 200 nM)	0.432	no binding (tested: about 200 nM)	0.399	0.331	7	186 nM and 36.6%	–	–	–	IC50 [2]: 0.466 nM
AM1 Fab (Fab, V domains shown, Unpurified Fab in bacterial lysate (BEL extract), used in SET screening) VH: QVQLLESGGGLVQPGGSLRLSCAASGFTFSTAAMSWVRQAPGKGLEWVSTIDSWGDDTDYADSVKGRFTISRDNSKNTLYLQMNSLRAEDTAVYYCARELSYLYSGYYFDYWGQGTLVTVSS VL: DIVLTQPPSVSGAPGQRVTISCSGSSSNIGSNDVSWYQQLPGTAPKLLIYKNYNRPSGVPDRFSGSKSGTSASLAITGLQAEDEADYYCSAWDQRQFDVVFGGGTKLTVL	–	–	–	–	–	–	–	~10	~7	0.032	–

Source: patent US20190330372A1 (Novartis, published 2019)
